Numbering of substitutions follows the chain as printed. Names may count otherwise. No end group written: not given here.
How the values were obtained:
[1] = target: T1, p300 (CH1 domain, residues 330–420) (Homo sapiens, UniProt Q09472); assay: ITC of chemically synthesized HIF-1α, CITED2 and CITIF peptides binding to p300; conditions: pH 7.5
T1 construct: GST (N, cleaved yes); made in house; host or cells: E. coli BL21 pLysS (pGEX-4T1-p300)
Description: Raw ITC (upper) data and fitted thermogram (lower) (40 mM sodium phosphate, pH 7.5 100 mM NaCl, 1 mM DTT buffer using 5 μM protein in the cell and 60 μM ligand in the syringe at 35 °C) error bars represent the estimated integration errors; (b) Thermodynamic signatures for each interaction.
Figure S8 (a) Sequences of the truncated CITED2 peptides and isothermal titration […]
µM peptide in the syringe. All measurements were carried out 40 mM sodium phosphate, pH 7.5 100 mM NaCl, 1 mM DTT buffer at 35°C. Error bars represent the estimated integration […]
Table S2 Thermodynamic parameters for shortened CITED2 sequences. 68% confidence intervals for the fitting are shown in brackets. Data fitted to a single binding site model, fixed 1:1 stoichiometry with incompetent protein fraction as an adjustable parameter. […]
(§1) Isothermal titration calorimetry
(§2) Prior to ITC measurement p300 CH1 was dialysed or run on S75 column in the buffer used for titration, and the same buffer was used to dissolve the pure peptides. Experiments with […]
(§3) MicroCal iTC200 instrument with 10 µM protein in the cell and 100 µM ligand in the syringe at 37°C, using 2 µl injections and 120 or 180 s spacing between injections. Experiments with the […]
(§4) instrument using 3-5 µM protein in the cell and 40-60 µM ligand in the syringe at 35°C, using 5 µl injections and 180 s spacing between injections, for 40 injections. Titrations were performed in 40 mM Na-phosphate, pH 7.5 100 mM NaCl, 1 mM DTT buffer except for GFP-HIF-1α and variants for which 25 mM Tris-HCl, 150 mM NaCl, 1mM DTT, pH 7.4 buffer was used. Data were analysed using NITPIC3 and fitted using SEDPHAT4 to a single binding site model (fixed 1:1 stoichiometry), with baseline and incompetent protein fraction as adjustable parameters. 68 % confidence intervals for the fitted values were determined using the automatic confidence interval search implemented in SEDPHAT. Figures were prepared using […]

[2] = target: T1, p300 (CH1 domain, residues 330–420); assay: ITC of expressed HIF-1α, CITED2 and CITIF peptides binding to p300; conditions: pH 7.5
Description: We hypothesized that it would be possible to enhance the affinity of HIF-1α for p300 by hybridising key regions of both CITED2 and HIF-1α (see later). We first measured the affinity of the parent peptides. A particular difficulty in comparing these peptide sequences is the different length used in different studies.[28,33,35,36] […]
data and fitted thermogram (lower) (40 mM sodium phosphate, pH 7.5 100 mM NaCl, 1 mM DTT buffer using 5 µM protein in the cell and 60 µM ligand in the syringe at 35°C); (b) Thermodynamic signatures for each interaction. […]
as §1, §2, §3, §4

[3] = target: T1, p300 (CH1 domain, residues 330–420); assay: ITC of GFP-HIF-1α776–826 variants binding to p300; conditions: 37 °C, 25 mM Tris–HCl, 150 mM NaCl, 1 mM DTT, pH 7.4, 10 μM p300 in cell, 100 μM variant in syringe; for ΔH: 68% confidence interval in brackets
Description: (§5) Fig. 2 Biophysical analyses on the effects of HIF-1α sequence variant p300 binding affinity. (a) schematic depicting the equilibrium for interaction of GFP-HIF-1α776–826 variants and GST-p300 as studied by fluorescence anisotropy; (b) representative fluorescence anisotropy titration data for sAV and mAV GFP-HIF-1α776–826 peptides interacting with GST-p300 (25 mM Tris–HCl, 150 mM NaCl, 1 mM DTT, pH 7.4), error bars represent standard deviation of technical triplicates; (c) raw ITC data (upper) and fitted thermogram (lower) for the interaction of GFP-HIF-1α776–826 peptides with p300 (37 °C in 25 mM Tris–HCl, 150 mM NaCl, 1 mM DTT, pH 7.4) using 10 μM p300 in the cell and 100 μM GFP-HIF-1α776–826 variant in the syringe; error bars represent estimated integration errors (d) thermodynamic signatures for each interaction. […]
Error bars represent standard deviation of technical triplicates.
Figure S5 Heat of dilution of (a) GFP titrated to buffer, (b) GFP titrated to p300 and (c) Raw ITC (upper) data and fitted thermogram (lower) for the interaction of GFP-HIF-1α776-826 D823A variant (37 °C in 25 mM Tris-HCl, 150 mM NaCl, 1mM DTT, pH 7.4) using 10 µM p300 in the cell and 100 µM HIF-1α variant in the syringe. ITC experiments were carried out using a Microcal ITC200i instrument (Malvern). All proteins were dialysed against the same buffer prior to experiment, buffer or 10 µM p300 was present in the cell and titrated with 100 µM GFP-HIF-1α or GFP loaded into the syringe using 16 x 2 μL injections with 120 s spacing between the injections. Heats of GFP or GFP-HIF-1α dilution were subtracted from the measurement raw data. Error bars represent the estimated integration errors. […]
as §1, §2, §3, §4

[4] = target: GST-p300 (p300 CH1 domain, residues 330–420) (Homo sapiens, UniProt Q09472); assay: Fluorescence anisotropy direct titration of GFP-HIF-1α776–826 variants with GST-p300; assay type: binding; conditions: 50 nM GFP-HIF-1α776–826 variant, GST-p300 serial dilution, 25 mM Tris–HCl, 150 mM NaCl, 1 mM DTT, pH 7.4, 27 °C, 1:1 model, ± standard error of fitted value, technical triplicates
Excerpt: To experimentally compare the predictions, we carried out an in vitro biophysical study of several HIF-1α sequence variants. We assessed predicted hot residues and their interactions with p300 using the NMR structure to visualize the structural basis behind the predictions (See ESI, ^† Fig. S2). These analyses helped refine a first series of alanine variants to prepare. […] HIF-1α776–826 sequence variants were recombinantly prepared based on the predictions to test their binding to the recombinantly prepared p300 (Fig. 2). Given the length of the peptide ([…]), this was considered advantageous as it obviates the need to chemically synthesise, label and purify multiple variants. As the C-TAD domain is unstructured in isolation it was recombinantly expressed as a fusion protein with GFP. The green-fluorescent protein (GFP) tag was used for fluorescence anisotropy (FA) experiments to determine the binding affinity of HIF-1α776–826 C-TAD variants to p300. As the CH1 domain of p300 is a small domain of 11 kDa it was recombinantly expressed as a fusion protein with GST to increase its size and thus the signal to noise in the FA experiments. We established an assay where the interaction between GFP-tagged wt HIF-1α776–826 and GST-tagged p300 was monitored by FA, using the fluorescence of GFP. GST dimerises with single digit nM Kd[61] (and in our hands exists as a dimer in size exclusion chromatography analyses, see ESI, ^† Fig. S15 for protein characterization data), thus two molecules of GFP-HIF-1α could bind to the GST-p300 dimer (Fig. 2a). We make the assumption that each p300 binding site behaves independently and analyse the binding isotherm using a 1 : 1 model.
as §5
7.4 buffer or dialysed into 25 mM Tris, 150 mM NaCl, 1 mM DTT pH 7.4 buffer.
GSTp300 protein was serially diluted in buffer (25 mM Tris-HCl, 150 mM NaCl, 1mM DTT, pH 7.4) and GFP-HIF-1α (50nM final concentration) was added, the plates were read after 0 min, 60 min, 4 h and 24 h, and incubated at room temperature in between. Each experiment was run in triplicate and the fluorescence anisotropy measured using an EnVision 2103 MultiLabel plate reader (Perkin Elmer) with excitation at 480 nm and emission at 535 nm (30 nm bandwidths). The recorded temperature for all measurements was 27°C ± 1°C. In parallel, a control experiment was performed in which no GFP-HIF was added and the volume made up with additional buffer, this blank was deducted from the raw data for each of the three repeats.
The intensity was calculated for each point using eqn (1) and used to calculated anisotropy […]
using eqn (2). From a plot of anisotropy against GST-p300 concentration the minimum and maximum anisotropies were obtained using a logistic sigmoidal fit in OriginPro 8.6. This allowed the conversion to fraction bound (eqn (3)). The data were then fitted using eqn (4) in OriginPro 8.6 to determine the dissociation constant, Kd. […]
5 µl injections and 180 s spacing between injections, for 40 injections. Titrations were performed in 40 mM Na-phosphate, pH 7.5 100 mM NaCl, 1 mM DTT buffer except for GFP- […]

[5] = target: T2, p300 CH1 domain (residues 330–420) (UniProt Q09472 330-420); assay: ITC; peptide in the syringe, p300 in the cell (Fig. 4: 5 μM protein, 60 μM ligand); 40 mM sodium phosphate, pH 7.5, 100 mM NaCl, 1 mM DTT, 35 °C; single-site model, fixed 1:1 stoichiometry; conditions: both partners purified
T2 construct: p300 CH1 domain, residues 330–420; The cleavage of GST is said for the anisotropy control; also called p300 with the GST tag cleaved; source: recombinantly expressed as a fusion protein with GST, GST tag cleaved

[6] = target: T2, p300 CH1 domain (residues 330–420); assay: ITC; 10 μM p300 in the cell, 100 μM GFP-HIF-1α 776–826 variant in the syringe; 37 °C; 25 mM Tris–HCl, 150 mM NaCl, 1 mM DTT, pH 7.4; fixed 1:1 stoichiometry; conditions: both partners purified
[7] = target: GST-tagged p300 CH1 domain (residues 330–420) (UniProt Q09472); assay: fluorescence polarisation; fluorescence anisotropy by the fluorescence of GFP; GFP-HIF-1α 776–826 variants with GST-p300; 25 mM Tris–HCl, 150 mM NaCl, 1 mM DTT, pH 7.4; 1:1 model, each p300 site of the GST dimer taken as independent

T1 sequence (Q09472 330-420): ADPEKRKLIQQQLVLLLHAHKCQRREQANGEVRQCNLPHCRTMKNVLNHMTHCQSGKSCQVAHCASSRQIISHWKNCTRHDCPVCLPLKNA
T2 sequence (Q09472 330-420): as above
Chain of GST-p300 (p300 CH1 domain, residues 330–420) (Q09472 330-420): as above

Ac-DEEVLMSLVIEMGLDRIKELPELWLGQNEFDFMTDF-NH2 [CITED224–259]
ΔH, synthetic peptides [1]: -12.4 kcal/mol
ΔS, synthetic peptides [1]: −3.6 cal mol^−1 K^−1
ΔH, expressed peptides [2]: -12.4 kcal/mol
ΔS, expressed peptides [2]: −6.2 cal mol^−1 K^−1

Ac-NVIDTDFIDEEVLMSLVIEMGLDRIKELPELWLGQNEFDFMTDFVCKQQPSRVS-NH2 [CITED216–269]
ΔH, synthetic peptides [1]: -13.2 kcal/mol
ΔS, synthetic peptides [1]: −10.0 cal mol^−1 K^−1
ΔH, expressed peptides [2]: -13.3 kcal/mol
ΔS, expressed peptides [2]: −7.5 cal mol^−1 K^−1

E801A: GFP-HIF-1α776–826 C-TAD single alanine variant E801A ({GFP}-SDLACRLLGQSMDESGLPQLTSYDCAVNAPIQGSRNLLQGEELLRALDQVN; cysteine pairing not given here)
ΔS [3]: −9.5 cal mol^−1 K^−1
ΔH [3]: -12.2 kcal/mol
Kd [4]: 227 ± 78 nM

D823A: GFP-HIF-1α776–826 C-TAD single alanine variant D823A ({GFP}-SDLACRLLGQSMDESGLPQLTSYDCEVNAPIQGSRNLLQGEELLRALAQVN; cysteine pairing not given here)
ΔS [3]: −12.2 cal mol^−1 K^−1
ΔH [3]: -13.0 kcal/mol
Kd [4]: 192 ± 17 nM

HIF-1α L792A: GFP-HIF-1α776–826 C-TAD single alanine variant L792A ({GFP}-SDLACRLLGQSMDESGAPQLTSYDCEVNAPIQGSRNLLQGEELLRALDQVN; cysteine pairing not given here)
ΔS [3]: −14.5 ^a cal mol^−1 K^−1
ΔH [3]: −13.6 ^a (−13.9, −13.2) kcal mol^−1

B1: HIF-1α 776–826, chemically synthesized peptide (peptide, UniProt Q16665 776-826, looked up)
peptide: Ac-SDLACRLLGQSMDESGLPQLTSYDCEVNAPIQGSRNLLQGEELLRALDQVN-NH2
modifications: cysteine pairing not given here
notes: source: synthetic peptide (chemical synthesis, see ESI)
Kd [5]: 52.2 nM
dH [5]: -22.9 kcal/mol

B2: GFP-tagged wt HIF-1α 776–826 C-TAD (domain or fragment, UniProt Q16665 776-826, looked up)
chain: SDLACRLLGQSMDESGLPQLTSYDCEVNAPIQGSRNLLQGEELLRALDQVN
notes: source: recombinantly expressed as a fusion protein with GFP
Kd [6]: 86 nM
dH [6]: -17.3 kcal/mol
Kd [7]: 55 nM

B3: GFP-HIF-1α 776–826 D823A (domain or fragment, UniProt Q16665 776-826, looked up)
chain: B2 chain with D48A
notes: As m3 with the stated change; also called HIF-1α D823A; source: recombinantly expressed as a fusion protein with GFP
Kd [6]: 369 nM
dH [6]: -13 kcal/mol
Kd [7]: 192 nM

B4: GFP-HIF-1α 776–826 L792A (domain or fragment, UniProt Q16665 776-826, looked up)
chain: B2 chain with L17A
notes: As m3 with the stated change; measured by ITC only; also called HIF-1α L792A; source: recombinantly expressed as a fusion protein with GFP
Kd [6]: 386 nM
dH [6]: -13.6 kcal/mol

B5: GFP-HIF-1α 776–826 E801A (domain or fragment, UniProt Q16665 776-826, looked up)
chain: B2 chain with E26A
notes: As m3 with the stated change; also called HIF-1α E801A; source: recombinantly expressed as a fusion protein with GFP
Kd [6]: 359 nM
dH [6]: -12.2 kcal/mol
Kd [7]: 227 nM

B6: HIF-1α 786–826, chemically synthesized peptide (peptide, UniProt Q16665 786-826, looked up)
peptide: Ac-SMDESGLPQLTSYDCEVNAPIQGSRNLLQGEELLRALDQVN-NH2
notes: as for B1
dH [5]: -25.8 kcal/mol

B7: CITIF, HIF-1α-CITED2 hybrid sequence, chemically synthesized peptide (peptide)
chain: Ac-DEEVLMSLVIEMGLDRIKELPQLTSYDCEVNAPIQGSRNLLQGEELLRALDQVN-NH2
dH [5]: -22.5 kcal/mol

Source: publication PMC9092470, “Understanding p300-transcription factor interactions using sequence variation and hybridization†” (RSC Chemical Biology, 2022)
